Data as given in US20200256880A1, “Neuronal Assay Method Involving Calcineurin” (The Broad Institute, Inc., priority 2017, published 2020).
Read-outs that look alike come from different tables or passages of the source.

B1: brain-derived neurotrophic factor (protein, UniProt P23560 19-247, looked up)
Neurotrophic factor BDNF …: APMKEANIRGQGGLAYPGVRTHGTLESVNGPKAGSRGLTSLADTFEHVIEELLDEDQKVRPNEENNKDADLYTSRVMLSSQVPLEPPLLFLLEEYKNYLDAANMSMRVRRHSDPARRGELSVCDSISEWVTAADKKTAVDMSGGTVTVLEKVPVSKGQLKQYFYETKCNPMGYTKEGCRGIDKRHWNSQCRTTQSYVRALTMDSKKRIGWRFIRIDTSCVCTLTIKRGR
B2: monoclonal mouse anti-pS469 CNAα antibody: monoclonal mouse antibody with the heavy and light chain variable regions listed in the Sequence Table (antibody, V domains shown)
VH: EVQLQQSGAELVRPGASVKLSCTASDFNIKDTYIHWLKQRPEQGLEWIGRIDPANSNPKYDPNFQGKATITTDTSSNTAYLQLSSLTSDDTAVYYCTRRDYYGSGSWFAYWGQGTLVTVSS
VL: DIVMTQAAPSVPVTPGESVSISCRSSKSLLHSNGNTYLYWFLQRPGQSPQLLIYRMSNLASGVPDRFSGSGSGTAFTLRINRVEAEDVGVYYCMQHLEYPLTFGAGTKLELK

Experiments:
[1] = system: phospho-S469 CNAα in rat hippocampal neurons; assay type: cell-based
phosphorylated CNAα = target: T1, phosphorylated CNAα (Mus musculus, UniProt P63328); assay: Lambda phosphatase de-phosphorylation specificity test on membrane; assay type: binding; settings: cortical neuron (15DIV) lysates on PVDF membrane, with or without cLTP
T1 construct: protein lysates from cortical neurons (15DIV), either 5 min post-cLTP induction or no cLTP control; endogenous in cells; host or cells: primary cortical neurons (15DIV)
Description: To further test the specificity of the murine monoclonal antibody for phosphorylated CNAα, de-phosphorylation experiments were performed using lambda phosphatase on protein fixed in a membrane. Specifically, protein lysates from cortical neurons (15DIV), either 5 min post-cLTP induction or no cLTP control, were separated by SDS-PAGE and subsequently transferred to a PVDF membrane. One section of the membrane was incubated overnight at room temperature with lambda phosphatase (FIG. 13, top panel, right blot), while another section was incubated under the same conditions without phosphatase (FIG. 13, top panel, left blot). Following these incubations, the phosphatase-treated and control membrane sections were incubated with the antibody and antibody binding was detected by chemiluminescence. […] As a loading control, the level of total CNAα was also assessed in both membranes sections after the incubations with or without phosphatase (bottom panel of the figure).

CNAα recombinant protein = assay: Western blot of CNAα recombinant protein WT, S469E and S462E/S469E with monoclonal antibody; assay type: binding
Description: The validation of the specificity of the antibody for pS469 was additionally determined by Western blot using CNAα recombinant protein WT (unphosphorylated), the phosphomimic mutant S469E (see examples above) and a double mutant with substitutions of E for S at both positions 462 and 469 (S462E/S469E). […] Levels of total CNAα were used as a loading control and were assessed after stripping of the membranes and incubation with anti-CNAα rabbit by chemiluminescence (bottom panel).

[2] = listed as monoclonal murine anti-S469 CNAα phosphospecific antibody

Molecule	levels of phospho-S469 CNAα within dendrites [1]	recognition of CNAα with or without lambda phosphatase treatment (phosphorylated CNAα; listed as monoclonal antibody)	recognition of CNAα with or without lambda phosphatase treatment (phosphorylated CNAα; listed as monoclonal murine anti-S469 phosphospecific antibody)	recognition of double mutant S462E/S469E (CNAα recombinant protein)	recognition of recombinant protein S469E (CNAα recombinant protein)	recognition of wild-type unphosphorylated CNAα recombinant protein (CNAα recombinant protein)	recognition of double mutant S462E/S469E (CNAα recombinant protein; [2])	recognition of recombinant protein S469E (CNAα recombinant protein; [2])	recognition of wild-type unphosphorylated CNAα recombinant protein (CNAα recombinant protein; [2])
B1	no change	–	–	–	–	–	–	–	–
B2	–	only able to recognize CNAα in absence of lambda phosphatase treatment	eliminated phosphospecific antibody binding	recognition	recognizes	not	does recognize	does recognize	does not recognize
